The target in test [1] is T1, SARS-CoV-2 Nsp9, wild type, purified recombinant (SARS-CoV-2, UniProt P0DTD1).
Test [2] addresses T1, SARS-CoV-2 Nsp9, wild type, purified …. Put plainly: NMR titration. Particulars: both partners purified.
For test [3] the target is unchanged. Description: far-Western, overlay or dot blot. The settings on record: both partners purified.

Like-named read-outs stand apart in the source and are kept apart here.

B1: 3NSP78 (VHH)
VHH: QVQLQESGGGLVQAGGSLRLSCAASGRAFSSYVMGWFRQAPGKEREFVAAIHWTGAATVYVDSVKGRFAISRHNAKNTVYLEMNSLKPEDTAVYYCAADPSGSYWPPKRYDYWGQGTQVTVSS
For the molecule B1, the binding result in test [1] is “binds”.

B2: nanobody 2NSP90 (VHH)
VHH: QVQLQESGGGLVQTGDSLRLSCAVSGRTFSTYSVGWFRQAPGKEREFVALRWSGGTTYYADSVVGRFTVSRDNAKNTVYLEMNSLKPEDTAVYYCAADRGSGSYSPTYRWDYWGQGTQVTVSS
Take B2: in test [2], the “stoichiometry N” value is 3 to 4.

B3: 2INS45 (VHH)
VHH: QVQLQESGGGLVQAGGSLRLSCAASGFTLSSNDMGWYRQAPGKQRELVATITSGLSTNYADSVKGRFTISRDNAKNTVFLQMNSLKIEDTAVYYCEVERGWGPPRDYWGHGTQVTVSS
As for B3, the binding result in test [1] was “binds”.

B4: 2INS69 (VHH)
VHH: QVQLQESGGGLVRAGDSLRLSCAVSGRTFSSVAMGWFRQAPGKEREFVAFISGSTGSVTYYADSVKGRFAISRDNAKNTVYLQMNSLKPEDTAVYDCAAKFTGTFNYQGLYDYWGQGTQVTVSS
For the molecule B4, the binding result in test [1] is “binds”.

B5: 3NSP52 (VHH)
VHH: QVQLQESGGGLVQPEGSLRLSCAASGLTFDSYAIGWFRQAPGKEREFVAASIWSGDSGHYTGSVKGRFTISRDNAKNTVDLQMNSLKPEDTAVYYCAASASFLHSANYHMRAKWGYWGQGTQVTVSS
As for B5, in test [1], the binding result is given as “binds”.

B6: 2INS27 (VHH)
VHH: QVQLQESGGGLVQAGGSLRLSCATSGSIFSSAVMGWYRQAPGNERELVALIGSSDTTDYSNSVKGRFTISRDNAKNTAYLRMNSLKPEDTAVYYCTAVKYGLGGFVYWGQGTQVTVSS
Take B6: in test [1], the binding result is “binds”.

B7: 2INS64 (VHH)
VHH: QVQLQESGGGLVQVGGSLRLSCAASGSILSINAMGWYRQAPGKQRELVAAITSGGSTNYADSVKGRFTISRDNAKNMLYLQMNSLKPEDTAVYYCHVVTGWGPLDWGQGTQVTVSS
As to B7, the binding result in test [1] is “binds”.

B8: nanobody 2NSP23 (VHH)
VHH: QVQLQESGGGLVQPGGSLRLSCAASGLAFSMYTMGWFRQAPGKEREFVAMIISSGDSTDYADSVKGRFTISRDNGKNTVYLQMDSLKPEDTAVYYCAAPKFRYYFSTSPGDFDSWGQGTQVTVSS
In the case of B8, the binding result in test [3] is listed as “binds”.

The values are drawn from publication PMC8646926 (Advanced Biology, 2021).
